Measurements taken from IntAct's records for PubMed 29039417.

B1: Protein PTHB1 (Homo sapiens), Q3SYG4 (parent)
chain: MSLFKARDWWSTILGDKEEFDQGCLCLANVDNSGNGQDKIIVGSFMGYLRIFSPHPAKTGDGAQAEDLLLEVDLRDPVLQVEVGKFVSGTEMLHLAVLHSRKLCVYSVSGTLGNVEHGNQCQMKLMYEHNLQRTACNMTYGSFGGVKGRDLICIQSMDGMLMVFEQESYAFGRFLPGFLLPGPLAYSSRTDSFLTVSSCQQVESYKYQVLAFATDADKRQETEQQKLGSGKRLVVDWTLNIGEQALDICIVSFNQSASSVFVLGERNFFCLKDNGQIRFMKKLDWSPSCFLPYCSVSEGTINTLIGNHNNMLHIYQDVTLKWATQLPHIPVAVRVGCLHDLKGVIVTLSDDGHLQCSYLGTDPSLFQAPNVQSRELNYDELDVEMKELQKIIKDVNKSQGVWPMTEREDDLNVSVVVSPNFDSVSQATDVEVGTDLVPSVTVKVTLQNRVILQKAKLSVYVQPPLELTCDQFTFEFMTPDLTRTVSFSVYLKRSYTPSELEGNAVVSYSRPTDRNPDGIPRVIQCKFRLPLKLICLPGQPSKTASHKITIDTNKSPVSLLSLFPGFASQSDDDQVNVMGFHFLGGARITVLASKTSQRYRIQSEQFEDLWLITNELILRLQEYFEKQGVKDFACSFSGSIPLQEYFELIDHHFELRINGEKLEELLSERAVQFRAIQRRLLARFKDKTPAPLQHLDTLLDGTYKQVIALADAVEENQGNLFQSFTRLKSATHLVILLIALWQKLSADQVAILEAAFLPLQEDTQELGWEETVDAAISHLLKTCLSKSSKEQALNLNSQLNIPKDTSQLKKHITLLCDRLSKGGRLCLSTDAAAPQTMVMPGGCTTIPESDLEERSVEQDSTELFTNHRHLTAETPRPEVSPLQGVSE
partner: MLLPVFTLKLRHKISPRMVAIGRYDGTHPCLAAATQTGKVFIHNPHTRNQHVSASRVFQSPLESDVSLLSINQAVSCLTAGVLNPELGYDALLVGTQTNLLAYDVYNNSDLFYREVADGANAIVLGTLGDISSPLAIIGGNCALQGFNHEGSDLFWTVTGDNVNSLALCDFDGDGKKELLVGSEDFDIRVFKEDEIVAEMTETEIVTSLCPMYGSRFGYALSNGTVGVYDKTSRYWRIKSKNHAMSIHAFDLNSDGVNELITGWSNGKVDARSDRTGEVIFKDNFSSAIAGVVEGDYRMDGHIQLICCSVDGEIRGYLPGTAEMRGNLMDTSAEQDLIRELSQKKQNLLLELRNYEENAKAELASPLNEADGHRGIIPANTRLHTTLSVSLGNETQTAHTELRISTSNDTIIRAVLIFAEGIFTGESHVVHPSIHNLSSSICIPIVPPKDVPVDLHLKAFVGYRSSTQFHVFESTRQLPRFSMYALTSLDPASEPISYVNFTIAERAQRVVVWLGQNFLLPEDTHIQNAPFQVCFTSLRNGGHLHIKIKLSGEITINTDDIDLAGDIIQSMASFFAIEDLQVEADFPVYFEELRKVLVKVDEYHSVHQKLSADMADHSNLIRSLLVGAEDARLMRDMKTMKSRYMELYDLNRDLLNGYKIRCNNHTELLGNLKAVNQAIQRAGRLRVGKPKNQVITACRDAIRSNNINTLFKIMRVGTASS

Variants of: B1
Settings: with bbs2_human BBS2, Q9BXC9

Variant | effect of a mutation on the interaction
S507K | with no effect
Y508A | with no effect
Y508E | with no effect
Y508K | with no effect
S509A | with no effect
S509E | with no effect
S509K | with no effect
R510A | with no effect
R510E | with no effect
R510K | with no effect
P511A | with no effect
P511E | with no effect
P511K | with no effect
T512A | with no effect
T512E | with no effect
T512K | with no effect
D513A | with no effect
D513E | with no effect
D513K | with no effect
R514A | with no effect
R514E | with no effect
R514K | with no effect
N515A | with no effect

Variant | effect of a mutation on the interaction
N515E | with no effect
N515K | with no effect
P516A | with no effect
P516E | with no effect
P516K | with no effect
D517A | with no effect
D517E | with no effect
D517K | with no effect
G518A | with no effect
G518E | with no effect
G518K | with no effect
I519A | with no effect
I519E | with no effect
I519K | with no effect
P520A | with no effect
P520E | with no effect
P520K | with no effect
R521A | with no effect
R521E | with no effect
R521K | with no effect
R521T | disrupting interaction strength
V522A | with no effect
V522E | with no effect

Variant | effect of a mutation on the interaction
V522K | with no effect
I523A | with no effect
I523E | with no effect
I523K | with no effect
Q524A | with no effect
Q524E | with no effect
Q524K | with no effect
C525A | with no effect
C525E | with no effect
C525K | with no effect
K526A | with no effect
K526E | with no effect
F527A | with no effect
F527E | with no effect
F527K | with no effect
R528A | with no effect
R528E | with no effect
R528K | with no effect
L529A | with no effect
L529E | with no effect
L529K | with no effect
P530A | with no effect
P530E | with no effect

Variant | effect of a mutation on the interaction
P530K | with no effect
P530L | disrupting interaction strength
L531A | with no effect
L531E | with no effect
L531K | with no effect
K532A | with no effect
K532E | with no effect
L533A | with no effect
L533E | with no effect
L533K | with no effect
I534A | with no effect
I534E | with no effect
I534K | with no effect
C535A | with no effect
C535E | with no effect
C535K | with no effect
L536A | with no effect
L536E | with no effect
L536K | with no effect
P537A | with no effect
P537E | with no effect
P537K | with no effect
G538A | with no effect

Variant | effect of a mutation on the interaction
G538E | with no effect
G538K | with no effect
Q539A | with no effect
Q539E | with no effect
Q539K | with no effect
P540A | with no effect
P540E | with no effect
P540K | with no effect
S541A | with no effect
S541E | with no effect
S541K | with no effect
K542A | with no effect
K542E | with no effect
T543A | with no effect
T543E | with no effect
T543K | with no effect
A544E | with no effect
A544K | with no effect
S545A | with no effect
S545E | with no effect
S545K | with no effect
H546A | with no effect
H546E | with no effect

Variant | effect of a mutation on the interaction
H546K | with no effect
K547A | with no effect
K547E | with no effect
I548A | with no effect
I548E | with no effect
I548K | with no effect
T549A | with no effect
T549E | with no effect
T549K | with no effect
I550A | with no effect
I550E | with no effect
I550K | with no effect
D551A | with no effect
D551E | with no effect
D551K | with no effect
T552A | with no effect
T552E | with no effect
T552K | with no effect
N553A | with no effect
N553E | with no effect
N553K | with no effect
N553T | disrupting interaction strength
K554A | with no effect

Variant | effect of a mutation on the interaction
K554E | with no effect
K554S | disrupting interaction strength
S555A | with no effect
S555E | with no effect
S555K | with no effect
P556A | with no effect
P556E | with no effect
P556K | with no effect
P556Q | disrupting interaction strength
V557A | with no effect
V557E | with no effect
V557K | with no effect
S558A | with no effect
S558E | with no effect
S558K | with no effect
S558N | disrupting interaction strength
L559A | with no effect
L559E | with no effect
L559K | with no effect
L559R | disrupting interaction strength
L560A | with no effect
L560E | with no effect
L560K | with no effect

Variant | effect of a mutation on the interaction
S561A | with no effect
S561E | with no effect
S561K | with no effect
L562A | with no effect
L562E | with no effect
L562K | with no effect
F563A | with no effect
F563E | with no effect
F563K | with no effect
P564A | with no effect
P564E | with no effect
P564K | with no effect
G565A | with no effect
G565E | with no effect
G565K | with no effect
G565R | disrupting interaction strength
F566A | with no effect
F566E | with no effect
F566K | with no effect
A567E | with no effect
A567K | with no effect
S568A | with no effect
S568E | with no effect
